Data set [1] can be described thus: Phase 3 Study: daratumumab serum pharmacokinetics. The following applies: daratumumab 16 mg/kg in D-VMP. In kind it is in vivo, human. The source says: (§1) Clinical pharmacology information provided herein focuses on data from subjects with evaluable pharmacokinetic data treated with D-VMP in the Phase 3 Study (n=342), and supportive information derived from the Phase 1b Study in the cohort of subjects treated with D-VMP having evaluable pharmacokinetic data (n=11). In addition, an updated population pharmacokinetics (PPK) analysis including data from the Phase 3 and Phase 1b Studies and exposure-response (efficacy and safety) analyses including data from Phase 3 Study were conducted.

The conditions of data set [2]: in vivo.
Excerpt: The first subject in this cohort started treatment with D-VMP. Subjects in the D-VMP cohort of the Phase 1b Study received treatment for a maximum of 9 cycles. Long-term follow-up for this cohort continued until death, loss to follow up, withdrawal of consent, or study end, whichever occurred first. The primary objective for the Phase 1b Study was to evaluate safety and tolerability of the combination regimen. Efficacy assessments (primary efficacy endpoint, overall response rate (ORR)) were performed per International Myeloma Working Group (IMWG) guidelines (Kumar S, et al. Lancet Oncol. 2016;17(8):e328-e346, hereby incorporated by reference in its entirety), and a computerized, validated algorithm as described above was utilized for determining response based on IMWG criteria.
as §1

Data set [3] in a line: Pooled infusion-related reaction analysis, 1,166 subjects treated with daratumumab 16 mg/kg IV. In kind it is in vivo, human.
For data set [4] the following is noted: in vivo. This is another data set of the same source.
For data set [5] the following is noted: cited from earlier work.
The conditions of data set [6]: mean±SD, cited from earlier work.

The half-life is the time needed for the level to fall by half in the phase considered.

Read-outs that look alike come from different tables or passages of the source.

Regarding daratumumab, the “mean end-of-infusion concentration following the first dose” value in data set [1] was 266.7 µg/mL; in data set [2], 332.2 µg/mL; in data set [5] (daratumumab monotherapy, Phase 2 study), 312.5 µg/mL. Moreover, the “Grade 4 IRRs” value in data set [3] (2 of 1,166 subjects) came to 0.2%. The “incidence of any grade IRR” value in data set [3] (first infusion, pooled 1,166 subjects) is given as 40%; in data set [3] (second infusion, pooled), 2%; in data set [3] (subsequent infusions, pooled), 4%. Besides, the “incidence of infusion modification due to IRRs” value in data set [3] (pooled) worked out at 37%. In data set [3] (second or subsequent infusion, pooled), the “subjects with a Grade 3 IRR” value is less than 1%. In data set [4] (human), the “model-derived half-life associated with the CL” value is recorded as “approximately 22.1±9.7 days”. Further, the “estimated Vi value” in data set [4] is “approached plasma volume”. Also, in data set [4], the “time to apparent steady state” value is “approximately 5 months”. Also, the “mean maximum trough concentration” value in data set [5] (after 8 weekly doses, monotherapy) is 573.5 µg/mL. Besides, in data set [5] (end of 8 weekly doses of monotherapy), the “increase in daratumumab compared with the first dose” value was 2.9 fold. Moreover, the half-life was 18 ± 9 days in data set [6] (monotherapy study data) and 23.3 ± 11.8 days in data set [6] (previous combination therapy study data).

The values are drawn from patent publication US20220062415A1, “Methods of Treating Multiple Myeloma” (Janssen Biotech, Inc., priority 2018, published 2022).
